Reference: patent publication US20190077876A1 (AbbVie / Abbott, published 2019)

Assays:
human CLDN9 protein [1] = molecular target: T1, human CLDN9 protein (human, UniProt O95484 1-217); experiment: flow cytometry on cells overexpressing human CLDN9; 10 µg/mL control antibody, Alexa 647 anti-mouse secondary; single point
T1 sequence (looked up): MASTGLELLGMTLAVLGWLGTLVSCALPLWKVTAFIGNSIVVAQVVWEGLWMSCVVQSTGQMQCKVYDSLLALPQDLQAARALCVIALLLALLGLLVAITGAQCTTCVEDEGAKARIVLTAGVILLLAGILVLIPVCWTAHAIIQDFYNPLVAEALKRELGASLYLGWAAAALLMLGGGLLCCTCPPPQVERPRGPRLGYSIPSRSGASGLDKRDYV

human CLDN6 protein [2] = molecular target: T2, human CLDN6 protein (human, UniProt P56747 1-220); experiment: flow cytometry on cells overexpressing human CLDN6; 10 µg/mL control antibody, Alexa 647 anti-mouse secondary; single point
T2 sequence (looked up): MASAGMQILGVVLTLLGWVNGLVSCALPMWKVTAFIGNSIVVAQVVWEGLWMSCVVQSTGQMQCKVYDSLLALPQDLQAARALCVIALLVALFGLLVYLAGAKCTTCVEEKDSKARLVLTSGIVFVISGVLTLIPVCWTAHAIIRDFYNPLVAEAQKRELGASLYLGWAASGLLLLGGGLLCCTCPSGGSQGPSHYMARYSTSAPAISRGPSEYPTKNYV

human CLDN4 protein [3] = molecular target: T3, human CLDN4 protein (human, UniProt O14493 1-209); experiment: flow cytometry on cells overexpressing human CLDN4; 10 µg/mL control antibody, Alexa 647 anti-mouse secondary; single point
T3 sequence (looked up): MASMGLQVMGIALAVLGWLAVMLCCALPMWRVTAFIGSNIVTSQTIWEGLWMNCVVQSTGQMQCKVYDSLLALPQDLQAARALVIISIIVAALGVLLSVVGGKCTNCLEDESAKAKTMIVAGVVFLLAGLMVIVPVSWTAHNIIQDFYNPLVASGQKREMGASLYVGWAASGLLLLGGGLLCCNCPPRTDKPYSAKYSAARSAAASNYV

human CLDN9 protein [4] = molecular target: T1, human CLDN9 protein; experiment: flow cytometry, antibody titration on HEK-293T cells overexpressing CLDN9, four parameter fit of fraction maximal binding; HEK-293T cells overexpressing CLDN9
From the text: (§1) Following additional washing with PBS, cells were fixed with paraformaldehyde (PFA) and read on a BD FACS Canto II flow cytometer in accordance with the manufacturer's instructions. MFI values were normalized using fluorescent microspheres (Bangs Laboratories) according to manufacturer's instructions.

human CLDN6 protein [5] = molecular target: T2, human CLDN6 protein; experiment: flow cytometry, antibody titration on HEK-293T cells overexpressing CLDN6, four parameter fit of fraction maximal binding; HEK-293T cells overexpressing CLDN6
From the text: as §1

human CLDN9 protein [6] = molecular target: T1, human CLDN9 protein; experiment: flow cytometry on cells overexpressing human CLDN9; 10 µg/mL purified antibody, Alexa 647 anti-mouse secondary; single point
human CLDN4 protein [7] = molecular target: T3, human CLDN4 protein; experiment: flow cytometry on cells overexpressing human CLDN4; Alexa 647 anti-mouse secondary; single point
human CLDN9 protein [8] = molecular target: T1, human CLDN9 protein; experiment: flow cytometry on cells overexpressing human CLDN9; Alexa 647 anti-mouse secondary; single point
human CLDN6 protein [9] = molecular target: T2, human CLDN6 protein; experiment: cell-based or functional assay
human CLDN6 protein [10] = molecular target: T2, human CLDN6 protein; experiment: cell-based or functional assay; remark: listed apart in the source
human CLDN6 protein [11] = molecular target: T2, human CLDN6 protein; experiment: flow cytometry on cells overexpressing human CLDN6; 10 µg/mL purified antibody, Alexa 647 anti-mouse secondary; single point
human CLDN4 protein [12] = molecular target: T3, human CLDN4 protein; experiment: flow cytometry on cells overexpressing human CLDN4; 10 µg/mL purified antibody, Alexa 647 anti-mouse secondary; single point
human CLDN9 protein [13] = molecular target: T1, human CLDN9 protein; experiment: cell-based or functional assay
human CLDN9 protein [14] = molecular target: T1, human CLDN9 protein; experiment: cell-based or functional assay; remark: listed apart in the source
[15] = molecular target: hCLDN proteins on the surface of PDX tumor cells; experiment: flow cytometry on LU135 (LU-Ad) PDX tumor cells, NTG subpopulation; change in geometric MFI against the IgG1 isotype control
[16] = molecular target: hCLDN proteins on the surface of PDX tumor cells; experiment: flow cytometry on OV91MET (OV-PS) PDX tumor cells, NTG subpopulation; change in geometric MFI against the IgG1 isotype control
[17] = molecular target: hCLDN proteins on the surface of PDX tumor cells; experiment: flow cytometry on PA24 (PDAC) PDX tumor cells, CSC subpopulation (EPCAM+ CD46hi CD324+); change in geometric MFI against the IgG1 isotype control
[18] = molecular target: hCLDN proteins on the surface of PDX tumor cells; experiment: flow cytometry on PA20 (PDAC) PDX tumor cells, NTG subpopulation; change in geometric MFI against the IgG1 isotype control
[19] = molecular target: hCLDN proteins on the surface of PDX tumor cells; experiment: flow cytometry on PA49 (PDAC) PDX tumor cells, CSC subpopulation (EPCAM+ CD46hi CD324+); change in geometric MFI against the IgG1 isotype control
[20] = molecular target: hCLDN proteins on the surface of PDX tumor cells; experiment: flow cytometry on PA49 (PDAC) PDX tumor cells, NTG subpopulation; change in geometric MFI against the IgG1 isotype control
[21] = molecular target: hCLDN proteins on the surface of PDX tumor cells; experiment: flow cytometry on LU135 (LU-Ad) PDX tumor cells, CSC subpopulation (EPCAM+ CD46hi CD324+); change in geometric MFI against the IgG1 isotype control
[22] = molecular target: hCLDN proteins on the surface of PDX tumor cells; experiment: flow cytometry on PA20 (PDAC) PDX tumor cells, CSC subpopulation (EPCAM+ CD46hi CD324+); change in geometric MFI against the IgG1 isotype control
[23] = molecular target: hCLDN proteins on the surface of PDX tumor cells; experiment: flow cytometry on OV44 (OV-S) PDX tumor cells, CSC subpopulation (EPCAM+ CD46hi CD324+); change in geometric MFI against the IgG1 isotype control
[24] = molecular target: hCLDN proteins on the surface of PDX tumor cells; experiment: flow cytometry on OV91MET (OV-PS) PDX tumor cells, CSC subpopulation (EPCAM+ CD46hi CD324+); change in geometric MFI against the IgG1 isotype control
[25] = molecular target: hCLDN proteins on the surface of PDX tumor cells; experiment: flow cytometry on PA24 (PDAC) PDX tumor cells, NTG subpopulation; change in geometric MFI against the IgG1 isotype control
[26] = molecular target: hCLDN proteins on the surface of PDX tumor cells; experiment: flow cytometry on OV54MET (OV-S) PDX tumor cells, CSC subpopulation (EPCAM+ CD46hi CD324+); change in geometric MFI against the IgG1 isotype control
[27] = molecular target: hCLDN proteins on the surface of PDX tumor cells; experiment: flow cytometry on LU22 (LU-Sq) PDX tumor cells, CSC subpopulation (EPCAM+ CD46hi CD324+); change in geometric MFI against the IgG1 isotype control
[28] = molecular target: hCLDN proteins on the surface of PDX tumor cells; experiment: flow cytometry on LU22 (LU-Sq) PDX tumor cells, NTG subpopulation; change in geometric MFI against the IgG1 isotype control
[29] = molecular target: hCLDN proteins on the surface of PDX tumor cells; experiment: flow cytometry on OV44 (OV-S) PDX tumor cells, NTG subpopulation; change in geometric MFI against the IgG1 isotype control
[30] = molecular target: hCLDN proteins on the surface of PDX tumor cells; experiment: flow cytometry on OV54MET (OV-S) PDX tumor cells, NTG subpopulation; change in geometric MFI against the IgG1 isotype control

Molecule: mIgG2b control (antibody)
- MFI (human CLDN9 protein [1]): 81
- MFI (human CLDN6 protein [2]): 84
- MFI (human CLDN4 protein [3]): 73

B1: hSC27.22 humanized anti-CLDN antibody (antibody, human IgG1, kappa, V domains shown)
VH: QVQLVQSGAEVKKPGASVKVSCKASGYTFTSYWMNWVRQAPGQRLEWMGMIHPSDSEIRLNQKFKDRVTITRDTSASTAYMELSSLRSEDTAVYYCARIDSYYGYLFYFDYWGQGTTVTVSS
VL: DIVMTQSPDSLAVSLGERATINCRASQTVSTSSYSYMHWYQQKPGQPPKLLIYFASNVESGVPDRFSGSGSGTDFTLTISSLQAEDVAVYYCQHSWEIPWTFGQGTKLEIKR
- EC50 (human CLDN9 protein [4]): 4.66 µg/mL
- EC50 (human CLDN6 protein [5]): 3.45 µg/mL

B2: SC27.108 mouse monoclonal anti-CLDN antibody (antibody, V domains shown)
VH: QVQMQQSGAELVRPGTSVKVSCKASGYAFTNYLIEWVKQRPGQGLEWIGLINPGSGGTNYNEKFKGKATLTADKSSTTAYMQLSSLTSDDSAVYFCARRSPLGSWIYYAYDGVAYWGQGTLVTVSA
VL: EIVLTQSPALMAASPGEKVTITCSVSSSISSSNLHWYQQKSGTSPKLWIYGTSNLASGVPVRFSGSGSGTSYSLTISNMEAEDAATYYCQQWSSYPHTFGGGTKLEIK
notes: also called SC27.109 (identical)
- MFI (human CLDN9 protein [6]): 86
- binding result (human CLDN4 protein [7]): no binding (tested: 10 µg/mL)
- binding result (human CLDN9 protein [8]): no binding (tested: 10 µg/mL)
- apparent IC50 of saporin-mediated cell killing (human CLDN6 protein [9]): 100 nM
- apparent IC50 of killing of HEK-293T cells overexpressing hCLDN6; antibody titrated 0.15 to 1000 nM with anti-mouse IgG Fab-saporin, CellTiter-Glo (human CLDN6 protein [10]): 102 nM
- MFI (human CLDN6 protein [11]): 99700
- MFI (human CLDN4 protein [12]): 88

B3: SC27.103 mouse monoclonal anti-CLDN antibody (antibody, V domains shown)
VH: EVHLQQSGPELVKPGGSMKISCKASGYSFTGYTMNWVKQSHGKNLEWIGLFNPYNGGTSYNQKFKGKATLTVDKSSSTAYMELLSLTSEDSAVYYCARCYRYDGLDYWGQGTTLTVSS
VL: QIVLTQSPAIMSASLGERVTMTCTASSSVSSSYLHWYQQKPGSSPTLWIYRTSDLASGVPARFSGSGSGTSYSLTISSMEAEDAATYYCHQYHRSPWTFGGGTRLEIK
- MFI (human CLDN9 protein [6]): 12100
- binding result (human CLDN4 protein [7]): no binding (tested: 10 µg/mL)
- apparent IC50 of saporin-mediated cell killing (human CLDN6 protein [9]): 58 nM
- apparent IC50 of saporin-mediated cell killing (human CLDN9 protein [13]): 466 nM
- apparent IC50 of killing of HEK-293T cells overexpressing hCLDN6; antibody titrated 0.15 to 1000 nM with anti-mouse IgG Fab-saporin, CellTiter-Glo (human CLDN6 protein [10]): 57.7 nM
- apparent IC50 of killing of HEK-293T cells overexpressing hCLDN9; antibody titrated 0.15 to 1000 nM with anti-mouse IgG Fab-saporin, CellTiter-Glo (human CLDN9 protein [14]): 466 nM
- MFI (human CLDN6 protein [11]): 99600
- MFI (human CLDN4 protein [12]): 75

B4: SC27.1 mouse monoclonal anti-CLDN antibody (antibody, V domains shown)
VH: EVQLQESRPELVKPGASVKISCKTSGYTFTEYTLHWVKQSHGKSLEWIGGINPNNGDTIYNQKFKGKATLTVDKSSSTAYMELRSLTSEYSAVYYCARRAITVYAMDYWGQGTSVTVSS
VL: DIQMTQSSSSFSVSLGDRVTITCKASEDIYNRLAWYQQKPGNAPRLLISGATSLETGTPSRFSGSGSGKDYTLSITSLRTEDAATYYCQQYWSTPLTFGTGTKLELK
- ΔMFI [15]: 17
- ΔMFI [16]: 0
- ΔMFI [17]: 1580
- ΔMFI [18]: 60
- ΔMFI [19]: 194
- ΔMFI [20]: 0
- ΔMFI [21]: 88
- ΔMFI [22]: 250
- ΔMFI [23]: 643
- ΔMFI [24]: 118
- ΔMFI [25]: 223
- ΔMFI [26]: 763
- ΔMFI [27]: 733
- ΔMFI [28]: 31
- ΔMFI [29]: 53
- ΔMFI [30]: 21
